From the supplement of paper PMC10724198
± gives the standard deviation of the averaged measurements.

System: Saccharomyces cerevisiae
Experiment: protein stability index of tFT-peptide fusion (C-terminal peptide) (PSI (0-1 scale)); higher = more stable (slower turnover)
Conditions: genetic background: wild type; temperature: 30 C
Method: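 Multiplexed protein stability (MPS) profiling in S. cerevisiae. Random 12-aa peptides (tFT-X12 library) are fused to the C-terminus of a sfGFP-mCherry tandem fluorescent timer, after mCherry and a GGGS linker. Cells are FACS-sorted into 8 mCherry/sfGFP bins and deep-sequenced. The protein stability index (PSI) is the read-weighted bin average, scaled from 0 (unstable) to 1 (stable). Only peptides with >10 reads are reported; cells were grown at 30 °C in SC-His with glucose.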
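Further: PSI is a weighted mean of sequencing reads over stability bins, variants kept only with over 10 reads, mCherry proximal and sfGFP distal, peptide attached via GGGS linker.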

Sequence | protein stability index
SRGNYKLIWSDT | 0.731 ± 0.093
FCCFGGSFFSLR | 0.715 ± 0.02
GPCTTFVVLLPE | 0.778 ± 0.14
TSVFPLFSPLRS | 0.721 ± 0.029
KKKKQKIKKQRK | 0.63 ± 0.00095
PPPPPRAPPLPP | 0.679 ± 0.029
KGVGGSTSRGGE | 0.666 ± 0.047
RWIWTRESTFSN | 0.705 ± 0.016
GLRLCLSMWLRD | 0.633 ± 0.054
TVGSLNSEIAGK | 0.691 ± 0.057
GGRGLGVVGEVL | 0.72 ± 0.046
PRLSLPSAPPRP | 0.732 ± 0.08
GRLFGVVSLCLL | 0.647 ± 0.035
GCHRRDALRTGD | 0.667 ± 0.053
CPSRCGLRAPYL | 0.706 ± 0.017
TPLPPEHLPRSR | 0.661 ± 0.031
CVLLSEVNRTMG | 0.646 ± 0.041
VSARWSTSLCLS | 0.533 ± 0.015
INRLKPGRGQKT | 0.658 ± 0.03
LRPPPPPASVCR | 0.646 ± 0.029
PPTPPSIPPSPP | 0.624 ± 0.064
TGDNNRGKRDYD | 0.678 ± 0.024
SLLELSPPRSPP | 0.681 ± 0.03
GVCWVTAGLWAI | 0.6098 ± 0.0021
ESVKVTIAKVMK | 0.708 ± 0.016

Sequence | protein stability index
GSSPIDGLEVYG | 0.654 ± 0.041
PPPLSSPGPPPL | 0.704 ± 0.014
PHSSFSLAPPIP | 0.696 ± 0.01
PWTRMHRETRYL | 0.683 ± 0.02
GPRQGVLEAASS | 0.636 ± 0.025
CLATAMARSQRE | 0.683 ± 0.024
LPPPSPTGTFPP | 0.7 ± 0.095
PAPLSPTHPPLP | 0.71 ± 0.053
RGPPGVPGSDML | 0.673 ± 0.023
GSIWVVGWGQGV | 0.711 ± 0.032
FFRWDSKHDILV | 0.732 ± 0.064
PPWLPAPFPLPD | 0.695 ± 0.045
RFEISNLVFIPR | 0.686 ± 0.033
GLRFIAMNIQML | 0.658 ± 0.026
WGWSGGEDCLEG | 0.64 ± 0.0073
SPPPPRLPSHPS | 0.613 ± 0.14
RSAVPSARASAD | 0.6431 ± 0.0026
VKQGCISSNCKL | 0.762 ± 0.16
KCCRRPPPAFRS | 0.725 ± 0.034
CGACGFGLGVWV | 0.701 ± 0.021
FRQWCTEVYIEV | 0.531 ± 0.031
LPPSPPLSPITS | 0.55 ± 0.024
PSALPLVPSPLP | 0.706 ± 0.033
SLSPLPSPPPPP | 0.7 ± 0.0087
FCALWASFFGVS | 0.715 ± 0.048

Sequence | protein stability index
KKVLKFTKKKKP | 0.599 ± 0.048
PSHPSPPPPAPP | 0.692 ± 0.041
IAQVDLPDRMKT | 0.6937 ± 0.0061
CPCRCLGFRWCF | 0.631 ± 0.076
CPGGQVECGVLC | 0.652 ± 0.021
SCEERVGEKVMG | 0.6398 ± 0.0014
RKKKKKNKNEKE | 0.713 ± 0.04
VSGSSAIFLLWC | 0.706 ± 0.1
GSSCRFGDNTVG | 0.738 ± 0.046
SEICGAPLARLR | 0.707 ± 0.034
HLSPPLPPAPTS | 0.7022 ± 0.0063
STAPRYNGRKYS | 0.702 ± 0.069
LLAFSPFLPLPP | 0.667 ± 0.046
YIKKTTPTIERG | 0.7157 ± 0.0039
VGSLRAGYFLRL | 0.637 ± 0.043
GSLHGTSAPPRF | 0.731 ± 0.15
GRGGGVGLVVGG | 0.683 ± 0.019
RHENKKDKIRME | 0.701 ± 0.11
GLGGYVIKYIMI | 0.572 ± 0.02
NGVGGMHGINIM | 0.696 ± 0.076
HPPPDPLPSRPS | 0.765 ± 0.093
FFVGAGATEGLG | 0.735 ± 0.021
CGSGWDRSVGIG | 0.531 ± 0.027
GSARLPLWSLPP | 0.793 ± 0.0082
PPATTSATRVRP | 0.698 ± 0.043

Sequence | protein stability index
IGVSDSGMWMGN | 0.694 ± 0.026
ASTTNLGNPFKA | 0.654 ± 0.038
LTYVSGIASVYG | 0.532 ± 0.019
PYHTITPKPLQR | 0.677 ± 0.049
FFSSSLMRLGCF | 0.6343 ± 0.00098
LTFGAPGACGLG | 0.719 ± 0.024
QDDTASMVVMIR | 0.697 ± 0.034
TLHEDVMFYSRM | 0.6843 ± 0.0067
TNYQKANIRINN | 0.667 ± 0.035
TQKKSTQLIKKK | 0.698 ± 0.067
VCGGCCEVEVGM | 0.622 ± 0.041
SPPPAPPPISPS | 0.708 ± 0.15
SLRQEFDAIFVG | 0.604 ± 0.039
QLDRRKDSLLRH | 0.746 ± 0.017
KNAAGERGGKEG | 0.644 ± 0.044
TLPEVELTRQPI | 0.747 ± 0.014
EKRDKREVRPGK | 0.6626 ± 0.0055
CEVCRGSDRCDV | 0.609 ± 0.015
YNSSSYCGGGCG | 0.6844 ± 0.0053
WVWGWRRGLRGV | 0.657 ± 0.011
LVALTSVLSALF | 0.698 ± 0.069
RVAWFSSNCFAV | 0.571 ± 0.061
GRCIPSFVLPRY | 0.693 ± 0.029
VFGAAGVRFFVG | 0.58 ± 0.022
WLVPLDYKEGVV | 0.687 ± 0.035

Sequence | protein stability index
VLAGTGGCASVW | 0.739 ± 0.022
EKTKEEKKLRTK | 0.647 ± 0.046
YEGPSTLVYHVR | 0.915 ± 0.082
SPCPPPPPSPPS | 0.6637 ± 0.0013
VGSSLRGWSSRT | 0.804 ± 0.045
PPPSSLVPFPLP | 0.7295 ± 0.0053
VAGATGRWIGHG | 0.6771 ± 0.0045
PVPRRPLLPLPP | 0.663 ± 0.02
KNEKNERKIATQ | 0.682 ± 0.016
VLRGSFPWLSPV | 0.7084 ± 0.0048
RLRTVQNLQIVV | 0.658 ± 0.028
LIALSLPSSFVF | 0.594 ± 0.025
PHPPFLFPPPCP | 0.71 ± 0.051
FQWVLDGYRCWD | 0.694 ± 0.098
VREFRRAVFVGS | 0.544 ± 0.02
KKRKKKEKKRKK | 0.773 ± 0.17
PWVSGGMGKGDV | 0.686 ± 0.0075
SFSACGEPVPPG | 0.661 ± 0.0077
LGGGAGAPPSHW | 0.7 ± 0.024
RGRRGAGTGRGP | 0.657 ± 0.019
PCPSVLPISLPH | 0.713 ± 0.06
VPVALWEAPAVH | 0.601 ± 0.013
GKSYWYDSGNMM | 0.752 ± 0.078
SNGYMFRRDRYV | 0.686 ± 0.028
RGWWVLCGGGGG | 0.57 ± 0.044

Sequence | protein stability index
CGLGVRGRLVLS | 0.625 ± 0.026
PSPLPPPPLPLS | 0.5739 ± 0.0048
ETRSDAVVVFTK | 0.694 ± 0.021
VWFFSHFCGVRF | 0.686 ± 0.012
SNRCGRGMRVFA | 0.658 ± 0.065
FHVVPLTSPPPV | 0.755 ± 0.03
ISMASRAGILRG | 0.686 ± 0.049
LFVSLLGAFVVG | 0.529 ± 0.03
PPPDRLPPAHLP | 0.721 ± 0.029
EKTKEKKAKKYG | 0.694 ± 0.027
RLPPGRPPPPPP | 0.602 ± 0.08
KHSMGSFNNILN | 0.6674 ± 0.0032
VGLGGGVRLGRL | 0.786 ± 0.09
LTDCIHERKGTE | 0.743 ± 0.017
LRFGLRCPLYHL | 0.799 ± 0.11
VRQGERGGGLGD | 0.747 ± 0.038
LPDAPCLCSGLL | 0.714 ± 0.013
TQSYLVSLRCGF | 0.796 ± 0.13
YSGFYIRRGLTW | 0.689 ± 0.011
IPRCSPAGVSSY | 0.696 ± 0.064
ELCFFISLVPDF | 0.642 ± 0.007
